Experimental data as given in paper PMC9974832.
Several values for one entry are separate records, joined by “and”; a condition that tells them apart may be missing. Equal values may be shown once.

Assays:
[1] = target: pyruvate kinase (PK) M2 (PKM2) (mouse) (mouse (endogenous in isolated glomeruli)) (UniProt P52480); experiment: cross-linking; lysates of mouse glomeruli or HRMCs (sodium phosphate buffer pH 7.3, 0.5% Triton X-100), 0.01% glutaraldehyde 5 min 37°C, stopped with 50 mM Tris-Cl pH 8.0; 10% SDS-PAGE, blot with anti-PKM2; samples from db/m, db/db, AAV-shARAP1 mice; NG/HG, ARAP1 shRNA, ARAP1 overexpression, AG1478 in cells
[2] = target: pyruvate kinase (PK) M2 (PKM2) (human (endogenous in HRMCs)) (UniProt P14618); experiment: as above

Chain of pyruvate kinase (PK) M2 (PKM2) (mouse), P52480 1-531 (enzyme; other documents disagree on this pair) (P52480 whole entry): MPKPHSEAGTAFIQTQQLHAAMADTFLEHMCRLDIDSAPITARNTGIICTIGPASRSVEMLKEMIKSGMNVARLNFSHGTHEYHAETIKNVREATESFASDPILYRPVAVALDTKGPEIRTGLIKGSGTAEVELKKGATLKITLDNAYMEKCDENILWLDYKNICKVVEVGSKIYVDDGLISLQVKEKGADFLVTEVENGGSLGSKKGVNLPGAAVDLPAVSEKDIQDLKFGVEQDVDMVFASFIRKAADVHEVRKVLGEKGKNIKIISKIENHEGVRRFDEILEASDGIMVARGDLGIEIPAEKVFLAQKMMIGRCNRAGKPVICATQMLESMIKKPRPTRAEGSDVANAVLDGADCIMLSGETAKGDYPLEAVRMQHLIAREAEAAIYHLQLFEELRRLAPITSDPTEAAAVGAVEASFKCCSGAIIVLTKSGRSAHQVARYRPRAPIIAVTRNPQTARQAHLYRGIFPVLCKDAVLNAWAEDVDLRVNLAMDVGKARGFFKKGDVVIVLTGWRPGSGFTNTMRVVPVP
Chain of pyruvate kinase (PK) M2 (PKM2), P14618 1-531 (enzyme; other documents disagree on this pair) (P14618 whole entry): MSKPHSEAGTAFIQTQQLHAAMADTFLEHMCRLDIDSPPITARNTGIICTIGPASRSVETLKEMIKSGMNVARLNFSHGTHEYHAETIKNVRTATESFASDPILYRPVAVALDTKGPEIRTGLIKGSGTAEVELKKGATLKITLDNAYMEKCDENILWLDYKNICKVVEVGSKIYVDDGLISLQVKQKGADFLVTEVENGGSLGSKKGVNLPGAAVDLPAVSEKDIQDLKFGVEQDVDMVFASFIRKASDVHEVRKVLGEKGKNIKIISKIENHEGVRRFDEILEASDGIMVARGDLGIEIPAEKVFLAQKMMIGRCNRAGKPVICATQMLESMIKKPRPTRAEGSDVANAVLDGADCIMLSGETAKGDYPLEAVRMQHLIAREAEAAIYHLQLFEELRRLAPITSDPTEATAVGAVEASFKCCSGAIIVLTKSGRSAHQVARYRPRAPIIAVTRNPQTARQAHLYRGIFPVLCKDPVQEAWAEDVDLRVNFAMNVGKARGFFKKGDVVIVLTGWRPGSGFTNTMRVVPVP

Substance	stoichiometry N [1]	stoichiometry N [2]
pyruvate kinase (PK) M2 (PKM2) (mouse), P52480 1-531 (enzyme; other documents disagree on this pair)	2 and 4	
pyruvate kinase (PK) M2 (PKM2), P14618 1-531 (enzyme; other documents disagree on this pair)		2
